Where two headings read alike, the source gives them in different places.
Key:
Assay in all cases: fluorescence polarization
[1] = biological target: T1, DNMT3B Δ214 (3BΔ214);DNMT3L CLD (3L) (human;human?, UniProt Q9UBC3;Q9UJW3 215-853;179-379, |)
DNMT3B PWWP K268A = DNMT3B PWWP K268A (human, UniProt Q9UBC3 206-355, K268A)
DNMT3B PWWP domain = DNMT3B PWWP domain (human, UniProt Q9UBC3 206-355)
[2] = biological target: T1, DNMT3B Δ214 (3BΔ214);DNMT3L CLD (3L); remark: listed apart in the source
[3] = biological target: T1, DNMT3B Δ214 (3BΔ214);DNMT3L CLD (3L); remark: listed apart in the source
[4] = biological target: T1, DNMT3B Δ214 (3BΔ214);DNMT3L CLD (3L); remark: listed apart in the source
[5] = biological target: T1, DNMT3B Δ214 (3BΔ214);DNMT3L CLD (3L); remark: listed apart in the source

T1 sequence (Q9UJW3 179-379, stated change not applied, chain 2 of 2, other chains not shown): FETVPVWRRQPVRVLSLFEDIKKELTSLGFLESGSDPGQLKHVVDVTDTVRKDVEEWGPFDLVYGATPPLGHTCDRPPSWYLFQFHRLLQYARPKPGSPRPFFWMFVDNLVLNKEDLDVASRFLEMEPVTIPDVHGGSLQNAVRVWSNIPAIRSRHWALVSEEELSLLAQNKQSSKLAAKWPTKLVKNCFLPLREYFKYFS

B1: 30-bp FAM dsDNA (dsDNA)
DNA 1: CTGAATACTACTTGCGCTCTCTAACCTGAT
DNA 2: ATCAGGTTAGAGAGCGCAAGTAGTATTCAG
In the case of B1, the Kd [1] is reported as 3.51 ± 0.28 µM, the Kd (DNMT3B PWWP K268A) is reported as 24.3 ± 2 µM and the Kd (DNMT3B PWWP domain) is reported as 9.12 ± 0.67 µM. It also gave a Kd [2] of 2.34 ± 0.15 µM, a Kd [3] of 0.85 ± 0.07 µM and a Kd [4] of 3.5 ± 0.3 µM. It also gave a Kd [5] of 1.39 ± 0.12 µM.
